In patent US20150344570A1 (published 2015):

B1: GpH7-A5/GpH7-B3 variant K334_08L/GpL16-k0 (antibody, human IgG1, kappa)
heavy 1: not shown
heavy 2: not shown
light: DIVMTQSPLSLPVTPGEPASISCQASESLVHSNRNTYLHWYLQKPGQSPQLLIYKVSNRFSGVPDRFSGSGSGTDFTLKISRVEAEDVGVYYCSQNTHVPPTFGQGTKVEIERTVAAPSVFIFPPSDEQLKSGTASVVCLLNNFYPREAKVQWKVDNALQSGNSQESVTEQDSKDSTYSLSSTLTLSKADYEKHKVYACEVTHQGLSSPVTKSFNRGEC
notes: Alteration in one H chain only; also called He Ab K334_08L
B2: GpH7-A5/GpH7-B3 variant K334_09D/GpL16-k0 (antibody, human IgG1, kappa)
heavy 1: not shown
heavy 2: not shown
light: B1 light
notes: Alteration in one H chain only; also called He Ab K334_09D
B3: GpH7-A5/GpH7-B3 variant K334_13S/GpL16-k0 (antibody, human IgG1, kappa)
heavy 1: not shown
heavy 2: not shown
light: B1 light
notes: Alteration in one H chain only; also called He Ab K334_13S
B4: GpH7-A5/GpH7-B3 variant K334_14T/GpL16-k0 (antibody, human IgG1, kappa)
heavy 1: not shown
heavy 2: not shown
light: B1 light
notes: Alteration in one H chain only; also called He Ab K334_14T
B5: GpH7-A5/GpH7-B3 variant K334_15Y/GpL16-k0 (antibody, human IgG1, kappa)
heavy 1: not shown
heavy 2: not shown
light: B1 light
notes: Alteration in one H chain only; also called He Ab K334_15Y
B6: GpH7-A5/GpH7-B3 variant K334_16H/GpL16-k0 (antibody, human IgG1, kappa)
heavy 1: not shown
heavy 2: not shown
light: B1 light
notes: Alteration in one H chain only; also called He Ab K334_16H
B7: GpH7-A5/GpH7-B3 variant K334_18N/GpL16-k0 (antibody, human IgG1, kappa)
heavy 1: not shown
heavy 2: not shown
light: B1 light
notes: Alteration in one H chain only; also called He Ab K334_18N
B8: GpH7-A5/GpH7-B3 variant K334_19Q/GpL16-k0 (antibody, human IgG1, kappa)
heavy 1: not shown
heavy 2: not shown
light: B1 light
notes: Alteration in one H chain only; also called He Ab K334_19Q
B9: GpH7-A5/GpH7-B3 variant L328_15Y/GpL16-k0 (antibody, human IgG1, kappa)
heavy 1: not shown
heavy 2: not shown
light: B1 light
notes: Alteration in one H chain only; also called He Ab L328_15Y
B10: GpH7-A5/GpH7-B3 variant P271_01G/GpL16-k0 (antibody, human IgG1, kappa)
heavy 1: not shown
heavy 2: not shown
light: B1 light
notes: Alteration in one H chain only; also called He Ab P271_01G
B11: GpH7-A5/GpH7-B3 variant P271_08L/GpL16-k0 (antibody, human IgG1, kappa)
heavy 1: not shown
heavy 2: not shown
light: B1 light
notes: Alteration in one H chain only; also called He Ab P271_08L
B12: GpH7-A5/GpH7-B3 variant P271_10E/GpL16-k0 (antibody, human IgG1, kappa)
heavy 1: not shown
heavy 2: not shown
light: B1 light
notes: Alteration in one H chain only; also called He Ab P271_10E
B13: GpH7-A5/GpH7-B3 variant P271_18N/GpL16-k0 (antibody, human IgG1, kappa)
heavy 1: not shown
heavy 2: not shown
light: B1 light
notes: Alteration in one H chain only; also called He Ab P271_18N
B14: GpH7-A5/GpH7-B3 variant P271_19Q/GpL16-k0 (antibody, human IgG1, kappa)
heavy 1: not shown
heavy 2: not shown
light: B1 light
notes: Alteration in one H chain only; also called He Ab P271_19Q
B15: GpH7-A5/GpH7-B3 variant Q295_10E/GpL16-k0 (antibody, human IgG1, kappa)
heavy 1: not shown
heavy 2: not shown
light: B1 light
notes: Alteration in one H chain only; also called He Ab Q295_10E
B16: GpH7-A5/GpH7-B3 variant Q295_12R/GpL16-k0 (antibody, human IgG1, kappa)
heavy 1: not shown
heavy 2: not shown
light: B1 light
notes: Alteration in one H chain only; also called He Ab Q295_12R
B17: GpH7-A5/GpH7-B3 variant S239_10E/GpL16-k0 (antibody, human IgG1, kappa)
heavy 1: not shown
heavy 2: not shown
light: B1 light
notes: Alteration in one H chain only; also called He Ab S239_10E
B18: GpH7-A5/GpH7-B3 variant S267_06M/GpL16-k0 (antibody, human IgG1, kappa)
heavy 1: not shown
heavy 2: not shown
light: B1 light
notes: Alteration in one H chain only; also called He Ab S267_06M
B19: GpH7-A5/GpH7-B3 variant S267_10E/GpL16-k0 (antibody, human IgG1, kappa)
heavy 1: not shown
heavy 2: not shown
light: B1 light
notes: Alteration in one H chain only; also called He Ab S267_10E
B20: GpH7-A5/GpH7-B3 variant S267_14T/GpL16-k0 (antibody, human IgG1, kappa)
heavy 1: not shown
heavy 2: not shown
light: B1 light
notes: Alteration in one H chain only; also called He Ab S267_14T
B21: GpH7-A5/GpH7-B3 variant S267_18N/GpL16-k0 (antibody, human IgG1, kappa)
heavy 1: not shown
heavy 2: not shown
light: B1 light
notes: Alteration in one H chain only; also called He Ab S267_18N
B22: GpH7-A5/GpH7-B3 variant S267_19Q/GpL16-k0 (antibody, human IgG1, kappa)
heavy 1: not shown
heavy 2: not shown
light: B1 light
notes: Alteration in one H chain only; also called He Ab S267_19Q
B23: GpH7-A5/GpH7-B3 variant S298_09D/GpL16-k0 (antibody, human IgG1, kappa)
heavy 1: not shown
heavy 2: not shown
light: B1 light
notes: Alteration in one H chain only; also called He Ab S298_09D

target: T1, FcγRIa (human, UniProt P12314 16-292); assay: SPR (Biacore), relative binding; control HeCon Ab GpH7-A5/GpH7-B3/GpL16-k0
T1 construct: extracellular domain; also called FcgRI; FcgRIa; not shown: His tag attached to the C terminus
T1 sequence (P12314 16-292): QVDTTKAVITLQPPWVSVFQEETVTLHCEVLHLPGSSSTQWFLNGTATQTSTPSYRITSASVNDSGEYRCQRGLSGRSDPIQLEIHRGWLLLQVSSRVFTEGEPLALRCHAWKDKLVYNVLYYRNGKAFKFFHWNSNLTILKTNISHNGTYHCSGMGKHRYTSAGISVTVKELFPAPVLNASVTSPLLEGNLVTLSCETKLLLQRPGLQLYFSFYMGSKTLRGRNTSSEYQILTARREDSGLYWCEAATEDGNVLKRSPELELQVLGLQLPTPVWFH

| Binder | He/Con_1a |
| --- | --- |
| B1 | 105 % of control (=100) |
| B2 | 106 % of control (=100) |
| B3 | 105 % of control (=100) |
| B4 | 105 % of control (=100) |
| B5 | 105 % of control (=100) |
| B6 | 105 % of control (=100) |
| B7 | 105 % of control (=100) |
| B8 | 106 % of control (=100) |
| B9 | 102 % of control (=100) |
| B10 | 105 % of control (=100) |
| B11 | 102 % of control (=100) |
| B12 | 103 % of control (=100) |
| B13 | 103 % of control (=100) |
| B14 | 103 % of control (=100) |
| B15 | 103 % of control (=100) |
| B16 | 100 % of control (=100) |
| B17 | 105 % of control (=100) |
| B18 | 106 % of control (=100) |
| B19 | 106 % of control (=100) |
| B20 | 102 % of control (=100) |
| B21 | 102 % of control (=100) |
| B22 | 102 % of control (=100) |
| B23 | 106 % of control (=100) |
